Experimental data as given in US6051217, “Therapeutic uses of interleukin-3 (IL-3) multiple mutation polypeptides” (G. D. Searle & Co., dated 2000).
Changes are numbered by the printed parent chain.

T1: hIL-3 receptor (human, UniProt P26951)
T1 sequence: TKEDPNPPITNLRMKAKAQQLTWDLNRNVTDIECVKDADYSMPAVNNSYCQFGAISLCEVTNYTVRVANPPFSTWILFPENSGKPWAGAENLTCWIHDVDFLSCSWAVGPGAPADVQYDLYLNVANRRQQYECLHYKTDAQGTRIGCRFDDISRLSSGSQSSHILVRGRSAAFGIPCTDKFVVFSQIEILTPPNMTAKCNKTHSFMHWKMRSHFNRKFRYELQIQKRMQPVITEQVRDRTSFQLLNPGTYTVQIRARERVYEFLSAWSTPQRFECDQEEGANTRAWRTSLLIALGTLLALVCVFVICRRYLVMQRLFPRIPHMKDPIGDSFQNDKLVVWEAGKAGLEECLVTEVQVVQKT

B1: pMON13451 polypeptide (ligand)
chain: MANCSIILDEAIHHLKIPPNPSLDSANLNSEDVSILMERNLRTPNLLAFVRAVKHLENASGIEPILRNLQPCLPSATAAPSRTPIIIKAGDWQEFREKLTFYLVTLEQAQEQQ
B2: pMON13467 polypeptide (ligand)
chain: B1 chain with I7M, L8I, A11L, P64A, T83H, E97L, T100Q, V104S, T105S
B3: native human interleukin-3, (1-133)hIL-3 (ligand)
chain: MAPMTQTTSLKTSWVNCSNMIDEIITHLKQPPLPLLDFNNLNGEDQDILMENNLRRPNLEAFNRAVKSLQNASAIESILKNLLPCLPLATAAPTRHPIHIKDGDWNEFRRKLTFYLKTLENAQAQQTTLSLAIF
B4: pMON13446 polypeptide (ligand)
chain: MAYPETDYKDDDDKNCSIMIDEIIHHLKRPPAPLLDPNNLNAEDVDILMERNLRLPNLESFVRAVKNLENASGIEAILRNLQPCLPSATAAPSRHPIIIKAGDWQEFREKLTFYLVTLEQAQEQQ
B5: pMON13390 polypeptide (ligand)
chain: B4 chain with A32N, A42S, V45M, L55T, E59L, S60A, N67H
B6: pMON13459 polypeptide (ligand)
chain: MANCSIMIDELIHHLKIPPNPSLDSANLNSEDVSILMERNLRTPNLLAFVRAVKHLENASGIEPILSNLQPCVPYWTAPPSRTPITIKAGDWQEFRLKLQFYLSTLEQAQEQQ
B7: pMON13428 polypeptide (ligand)
chain: B6 chain with L11I, I17R, S22L, S25P, A26N, V33M, S34D
B8: pMON13422 polypeptide (ligand)
chain: MANCSIAIDEIIHHLKRPPNPLLDPNNLNSEDVDILIERNLRTPNLLAFVRAVKHLENASGIEAILRNLQPCLPSATAAPSRHPIIIKAGDWQEFREKLTFYLVTLEQAQEQQ
B9: pMON13425 polypeptide (ligand)
chain: B8 chain with A7I, I37L
B10: pMON13426 polypeptide (ligand)
chain: B8 chain with I37D
B11: pMON13423 polypeptide (ligand)
chain: B8 chain with A7I
B12: pMON13440 polypeptide (ligand)
chain: B1 chain with I7M, L8I
B13: pMON13424 polypeptide (ligand)
chain: B8 chain with I37L
B14: pMON13429 polypeptide (ligand)
chain: B8 chain with A7I, I37D

What was measured:
[1] = target: T1, hIL-3 receptor; assay: cell-based or functional assay
[2] = target: T1, hIL-3 receptor; assay: cell-based or functional assay; remark: listed apart in the source

Binder	Relative Biological Activity (AML 193 proliferation) [1]	EC50, AML 193 cell proliferation assay [2]
B1	0.1 EC50 (1-133)hIL-3 / EC50 mutant	–
B2	0.16 EC50 (1-133)hIL-3 / EC50 mutant	–
B3	1 EC50 (1-133)hIL-3 / EC50 mutant	0.0302 nM
B4	21.5 EC50 (1-133)hIL-3 / EC50 mutant	–
B5	20 EC50 (1-133)hIL-3 / EC50 mutant	–
B6	0.003 EC50 (1-133)hIL-3 / EC50 mutant	–
B7	0.008 EC50 (1-133)hIL-3 / EC50 mutant	–
B8	0.4 EC50 (1-133)hIL-3 / EC50 mutant	–
B9	6 EC50 (1-133)hIL-3 / EC50 mutant	–
B10	> 0.0003 EC50 (1-133)hIL-3 / EC50 mutant	–
B11	0.4 EC50 (1-133)hIL-3 / EC50 mutant	–
B12	9 EC50 (1-133)hIL-3 / EC50 mutant	–
B13	3 EC50 (1-133)hIL-3 / EC50 mutant	–
B14	> 0.0002 EC50 (1-133)hIL-3 / EC50 mutant	–
